The source of these data is paper PMC4694137.

The target of test [1] is AgaR1 (SSU05_0448) protein from Streptococcus suis (Streptococcus suis). Put plainly: cross-linking; purified protein (~5 mg/mL) in 15 uL incubated with EGS cross-linker (0, 2.5, 5, 10, 20 umol/L for AgaR2; 0.1, 0.2, 0.5, 1.0, 2.5, 5, 10, 20 umol/L for AgaR1) for 1 h at room temperature; 12% SDS-PAGE, Coomassie staining.
For test [2], the target named is AgaR2 (SSU05_0447) protein from Streptococcus suis (Streptococcus suis). The description is as above.

For the substance “AgaR1 (SSU05_0448) protein from Streptococcus suis (natural protein)”, in test [1], the stoichiometry N (as a rule, the number of molecules, sites or subunits per partner or assembly) worked out at 2.

In the case of “AgaR2 (SSU05_0447) protein from Streptococcus suis (natural protein)”, the stoichiometry N in test [2] was found to be 2.
